The values below come from paper PMC3172333.

Assay [1] addresses cross-linked Aα221-610 oligomers (factor XIIIa cross-linked) (human). Put plainly: SPR. On the technique in general: In SPR one partner is held on a chip, and binding of the other changes the refractive index at the surface.
The target of assay [2] is recombinant Aα221-610 fragment corresponding to the human fibrinogen αC region (non-cross-linked) (human). Put plainly: SEC. (In general: Size exclusion chromatography separates by hydrodynamic size, large species first.)
Assay [3] shares this target. Put plainly: SEC. This is another data set of the same source.
The target is the same in assay [4]. The assay can be described thus: SEC. This is another data set of the same source.
For assay [5] the target is unchanged. Put plainly: SEC. The source holds these as a separate data set.
For assay [6] the target is unchanged. The assay can be described thus: SEC. The source holds these as a separate data set.

As a reminder, the pKd is the negative decadic logarithm of the Kd, by convention in mol/L. High values mean a low Kd, low ones a high Kd.

pKd: −log10 of the molar value. Like-named read-outs stand apart in the source and are kept apart here.

In assay [1], human Glu-plasminogen (natural protein) gave a pKd of 6.34.

Take “recombinant Aα221-610 fragment corresponding to the human fibrinogen αC region (non-cross-linked) (domain or fragment)”: the percent oligomers in assay [2] was found to be 15%; in assay [3], 60%; in assay [4], 22%; in assay [6], 5%. The percent monomer in assay [5] was determined as 10%; in assay [6] it was 60%. Further, in assay [6], the percent oligomers (after overnight incubation) came out at 11%. In addition, in assay [6], the percent oligomers (immediately after dilution) was found to be 18%.

Regarding “recombinant single-chain tissue type plasminogen activator (enzyme)”, in assay [1], the negative-log Kd (pKd) is 6.36.
